Patent publication US20190276540A1

Assays:
[1] = biological target: NKG2D ligands (NKG2DL) on tumor cell lines; experiment: cell-based or functional assay
ULBP2-Fc = ULBP2-Fc (UniProt Q9BZM5); experiment: cell-based or functional assay
UniProt Q9BZM5, sequence (Q9BZM5 26-217 limits assumed): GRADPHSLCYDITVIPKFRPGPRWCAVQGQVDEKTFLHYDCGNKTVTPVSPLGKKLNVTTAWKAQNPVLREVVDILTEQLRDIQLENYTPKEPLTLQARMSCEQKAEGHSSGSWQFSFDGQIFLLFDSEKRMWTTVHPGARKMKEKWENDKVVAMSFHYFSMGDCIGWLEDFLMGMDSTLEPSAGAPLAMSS

tumor cell lysis, luciferase reporter assay, 24 h co-culture, E:T 1-to-1 [1]	proliferation of CFSE-labelled TFP T cells on plate-bound antigen, three-day culture, flow cytometry (ULBP2-Fc)	tumor cell lysis, luciferase reporter assay, 24 h co-culture, E:T 5-to-1 [1]	Substance
30 to 50%	60 ng/mL	–	dimeric NKG2D-CD3ε TFP (receptor)
–	250 ng/mL	30 to 50%	monomeric NKG2D-CD3ε TFP (receptor)
